# Assay results reported in publication PMC4325325.
# Test system: RcsB
# Test: EMSA
row,Substance,K half [ng per 16 µL]
1,"hmsC (hmsCDE/hmsD) promoter, wild-type RcsAAB box",800
2,lcrQ promoter,> 2000
